From US20250257137A1
pKd: −log10 of the molar value.

Legend:
[1] = target: anti-CMVpHLA antibody (available from Ajou University)
[2] = target: anti-CMVpHLA antibody (available from Ajou University); remark: listed apart in the source
[3] = target: Fcµ receptor (R&D systems) (UniProt O60667); test: ELISA, Fcµ coated, anti-IgM-HRP; IMB-4011 = 100
[4] = target: Fcα/µ receptor (R&D systems) (UniProt Q8WWV6); test: ELISA, Fcα/µ coated, anti-IgM-HRP; IMB-4011 = 100
[5] = target: pIgR (polymeric Ig receptor; R&D systems) (UniProt P01833); test: ELISA, pIgR coated, anti-IgM-HRP; IMB-4011 = 100
[6] = target: Fcµ receptor (R&D systems) (UniProt O60667); test: ELISA, Fcµ coated; IMB-4011 = 100 (Example 2-7)
[7] = target: Fcα/µ receptor (R&D systems) (UniProt Q8WWV6); test: ELISA, Fcα/µ coated; IMB-4011 = 100 (Example 2-7)
[8] = target: pIgR (polymeric Ig receptor; R&D systems) (UniProt P01833); test: ELISA, pIgR coated; IMB-4011 = 100 (Example 2-7)
[9] = target: conjugate of FcRn and β2m antigen (ACRO biosystems) (UniProt P55899)

Question: CMVpHLA (peptide-MHC) was tested. Which pKd [1] did it give?
Answer: 8.74

Question: What about the koff [1] of the same substance?
Answer: 0.00464 s⁻¹

Question: What about the kon [1] of the same substance?
Answer: 2.52e+06 M⁻¹ s⁻¹

Question: “[(CMVpHLA)2-((GGGGS)3)2-(IgM Fc region)]5-(J chain) (from UniProt P01591 23-159) (Fc fusion)” was tested. Which pKd [1] did it give?
Answer: 11.21

Question: With “[(CMVpHLA)2-(IgA hinge region)2-(IgM Fc region)]5-(J chain) (from UniProt P01591 23-159) (Fc fusion)” as the substance, how does the pKd [1] read?
Answer: 11.23

Question: For “[(CMVpHLA)2-(IgD hinge region)2-(IgM Fc region)]5-(J chain) (from UniProt P01591 23-159) (Fc fusion)”, which EC50 (read off the curve) [2] is on record?
Answer: 20 pM

Question: What about the pKd [1] of the same substance?
Answer: 11.17

Question: “[(CMVpHLA)2-(IgD hinge region)2-(IgM Fc region)]6-(J chain)0 (Fc fusion)” was tested. Which pKd [1] did it give?
Answer: 10.63

Question: And the koff [1]?
Answer: 0.000197 s⁻¹

Question: And the kon [1]?
Answer: 8.44e+06 M⁻¹ s⁻¹

Question: What does the source list for “[(CMVpHLA)2-(linker)0-(IgM Fc region)]5-(J chain) (from UniProt P01591 23-159) (Fc fusion)”?
Answer: EC50 (read off the curve) [2]: 10 pM; pKd [1]: 10.99

Question: Which Relative binding ability to Fcµ receptor (%) [3] does the source give for “[(CMVpHLA)2-(linker)2-(IgG Fc region)-(IgM Fc region L126 deletion)]5-(J chain) (from UniProt P0DOX6 341-576; P01591 23-159) (Fc fusion)” here?
Answer: 12%

Question: What about the Relative binding ability to Fcα/µ receptor (%) [4] of the same substance?
Answer: 1%

Question: What about the Relative binding ability to pIgR (%) [5] of the same substance?
Answer: 6%

Question: Which results are given for “[(CMVpHLA)2-(linker)2-(IgG Fc region)-(IgM Fc region L126G)]5-(J chain R106V) (from UniProt P0DOX6 341-576; P01591 23-159) (Fc fusion)”?
Answer: Relative binding ability to Fcµ receptor (%) [6]: 3%; Relative binding ability to Fcα/µ receptor (%) [7]: 0.4%; Relative binding ability to pIgR (%) [8]: 2%

Question: For “[(CMVpHLA)2-(linker)2-(IgG Fc region)-(IgM Fc region L126G)]5-(J chain R106W) (from UniProt P0DOX6 341-576; P01591 23-159) (Fc fusion)”, which Relative binding ability to Fcµ receptor (%) [6] is on record?
Answer: 3%

Question: And the Relative binding ability to Fcα/µ receptor (%) [7]?
Answer: 0.5%

Question: And the Relative binding ability to pIgR (%) [8]?
Answer: 2%

Question: How did the Relative binding ability to Fcµ receptor (%) [3] turn out when “[(CMVpHLA)2-(linker)2-(IgG Fc region)-(IgM Fc region L126G)]5-(J chain) (from UniProt P0DOX6 341-576; P01591 23-159) (Fc fusion)” was run?
Answer: 7%

Question: How did the Relative binding ability to Fcµ receptor (%) [6] turn out when “[(CMVpHLA)2-(linker)2-(IgG Fc region)-(IgM Fc region L126S)]5-(J chain R106V) (from UniProt P0DOX6 341-576; P01591 23-159) (Fc fusion)” was run?
Answer: 3%

Question: What about the Relative binding ability to Fcα/µ receptor (%) [7] of the same substance?
Answer: 1%

Question: And the Relative binding ability to pIgR (%) [8]?
Answer: 2%

Question: With “[(CMVpHLA)2-(linker)2-(IgG Fc region)-(IgM Fc region L126S)]5-(J chain R106W) (from UniProt P0DOX6 341-576; P01591 23-159) (Fc fusion)” as the substance, how does the Relative binding ability to Fcµ receptor (%) [6] read?
Answer: 3%

Question: And the Relative binding ability to Fcα/µ receptor (%) [7]?
Answer: 1%

Question: What about the Relative binding ability to pIgR (%) [8] of the same substance?
Answer: 3%

Question: “[(CMVpHLA)2-(linker)2-(IgG Fc region)-(IgM Fc region L126S)]5-(J chain) (from UniProt P0DOX6 341-576; P01591 23-159) (Fc fusion)” was tested. Which Relative binding ability to Fcµ receptor (%) [3] did it give?
Answer: 7%

Question: And the Relative binding ability to pIgR (%) [5]?
Answer: 8%

Question: Which Relative binding ability to Fcµ receptor (%) [3] does the source give for “[(CMVpHLA)2-(linker)2-(IgG Fc region)-(IgM Fc region N125K)]5-(J chain) (from UniProt P0DOX6 341-576; P01591 23-159) (Fc fusion)” here?
Answer: 7%

Question: “[(CMVpHLA)2-(linker)2-(IgG Fc region)-(IgM Fc region)]5-(J chain D105K) (from UniProt P0DOX6 341-576; P01591 23-159) (Fc fusion)” was tested. Which Relative binding ability to pIgR (%) [5] did it give?
Answer: 8%

Question: How did the Relative binding ability to pIgR (%) [5] turn out when “[(CMVpHLA)2-(linker)2-(IgG Fc region)-(IgM Fc region)]5-(J chain N107K) (from UniProt P0DOX6 341-576; P01591 23-159) (Fc fusion)” was run?
Answer: 8%

Question: How did the Relative binding ability to Fcµ receptor (%) [3] turn out when “[(CMVpHLA)2-(linker)2-(IgG Fc region)-(IgM Fc region)]5-(J chain R106 deletion) (from UniProt P0DOX6 341-576; P01591 23-159) (Fc fusion)” was run?
Answer: 59%

Question: And the Relative binding ability to Fcα/µ receptor (%) [4]?
Answer: 1%

Question: What about the Relative binding ability to pIgR (%) [5] of the same substance?
Answer: 4%

Question: How did the Relative binding ability to Fcα/µ receptor (%) [4] turn out when “[(CMVpHLA)2-(linker)2-(IgG Fc region)-(IgM Fc region)]5-(J chain R106F) (from UniProt P0DOX6 341-576; P01591 23-159) (Fc fusion)” was run?
Answer: 7%

Question: “[(CMVpHLA)2-(linker)2-(IgG Fc region)-(IgM Fc region)]5-(J chain) (from UniProt P0DOX6 341-576; P01591 23-159) (Fc fusion)” was tested. Which EC50 (read off the curve) [9] did it give?
Answer: 200000 pM
